This test deals with human CD303 antigen (human) (UniProt Q8WTT0). The test can be described thus: cell-based or functional assay.
Sequence of human CD303 antigen (human) (Q8WTT0 whole entry): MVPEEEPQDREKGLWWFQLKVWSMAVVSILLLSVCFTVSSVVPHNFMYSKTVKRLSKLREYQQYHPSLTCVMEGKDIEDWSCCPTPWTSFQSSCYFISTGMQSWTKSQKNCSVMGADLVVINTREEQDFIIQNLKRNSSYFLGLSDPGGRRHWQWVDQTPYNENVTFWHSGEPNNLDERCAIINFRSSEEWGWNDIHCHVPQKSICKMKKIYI

B1: humanized anti-CD303 antibody BIIB059 (antibody, INN chains, looked up, V domains shown)
VH: DVQLVESGGGLVKPGGSLRLSCAASGFTFSTYTMSWVRQAPGKGLEWVATISPGDSFGYYYPDSVQGRFTISRDNAKNSLYLQMNSLRAEDTAVYYCTRDIYYNYGAWFAYWGQGTLVTVSS
VL: DIQLTQSPSSLSASVGDRVTITCKASQSVDYDGDSYMNWYQQKPGKAPKLLIYAASTLESGVPSRFSGSGSGTDFTLTISSLQPEDFATYYCQQANEDPRTFGQGTKVEIK
B1 returned an EC50 (ng/mL), ADCC activity via CD16a of 1.68 ng/mL and an Emax (% lysis), ADCC activity via CD16a of 29.3 % lysis.

(Values after patent US20180066060A1.)
